In article PMC8622905, “Structural Effects of Disease-Related Mutations in Actin-Binding Period 3 of Tropomyosin” (Molecules, 2021):

B1: Tpm3.12_(65–155) (domain or fragment)
chain: not shown
modifications: disulfide bond between the Cys residues of the N-terminal fusion sequences of the two chains (non-reducing conditions)
notes: tropomyosin Tpm3.12 (human skeletal isoform, TPM3), residues 65-155, numbered as in full-length Tpm3.12; Cloned in pET15b between NdeI and BamHI; One sentence of the methods prints 65–165; also called Tpm3.12 peptide; wild-type Tpm3.12_(65–155); source: His-tag removed with thrombin; not shown: His-tag, N-terminal, cleaved
B2: Tpm1.1_(64–154) (domain or fragment)
chain: not shown
modifications: disulfide bond between the Cys residues of the N-terminal fusion sequences of the two chains (non-reducing conditions)
notes: tropomyosin Tpm1.1 (human skeletal isoform, TPM1), residues Leu64 to Ile154; Cloned in pET15b between NdeI and BamHI; also called Tpm1.1 peptide; wild-type Tpm1.1_(64–154); source: His-tag removed with thrombin; not shown: His-tag, N-terminal, cleaved
B3: Tpm1.1_(64–154)I92T (domain or fragment)
chain: not shown
modifications: oxidized Cys residues (disulfide between the N-terminal Cys of the two chains)
notes: tropomyosin Tpm1.1 (human, TPM1), residues 64-154 with the cardiomyopathy mutation I92T; source: His-tag removed with thrombin; not shown: His-tag, N-terminal, cleaved
B4: Tpm3.12_(65–155)R91C (domain or fragment)
chain: not shown
modifications: oxidized Cys residues (disulfide between the N-terminal Cys of the two chains)
notes: tropomyosin Tpm3.12 (human, TPM3), residues 65-155 with the congenital myopathy mutation R91C; source: His-tag removed with thrombin; not shown: His-tag, N-terminal, cleaved
B5: Tpm1.1_(64–154)V95A (domain or fragment)
chain: not shown
modifications: oxidized Cys residues (disulfide between the N-terminal Cys of the two chains)
notes: tropomyosin Tpm1.1 (human, TPM1), residues 64-154 with the cardiomyopathy mutation V95A; source: His-tag removed with thrombin; not shown: His-tag, N-terminal, cleaved
B6: Tpm3.12_(65–155)R91P (domain or fragment)
chain: not shown
modifications: oxidized Cys residues (disulfide between the N-terminal Cys of the two chains)
notes: tropomyosin Tpm3.12 (human, TPM3), residues 65-155 with the congenital myopathy mutation R91P; source: His-tag removed with thrombin; not shown: His-tag, N-terminal, cleaved

Target: the molecule itself
Assay: cross-linking; disulfide cross-link through the N-terminal Cys, seen on SDS-polyacrylamide gel; Laemmli solution without β-mercaptoethanol, with or without 3 min at 100 °C

Stoichiometry N, 2:
B1
B2

Target: the molecule itself
Assay: mass spectrometry; molecular weights of the purified peptides compared with theoretical MWs calculated in Expasy; Liquid Chromatography and Mass Spectrometry Laboratory

Stoichiometry N, 2:
B3
B4
B5
B6
